This is an account of results in the supplement of paper PMC7125110.

B1: glmS ribozyme (parent)
chain: AUAAAAGCGCCAGAACUACAGAAAUGUAGUUGACGAGGAGGAGGUUUAUCGAAUUUUCGGCGGAUGCCUCCAAA

Settings in all cases: with glucosamine-6-phosphate
The variants in data set [1] derive from B1. As to the kind of experiment: self-cleavage kobs at 40 uM GlcN6P; higher = faster cleavage; RNA array. Summed up:
(§1)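 Barcoded ribozyme variants on sequenced MiSeq chips were transcribed in situ by E. coli RNA polymerase and followed at 37 °C through a hybridised Cy3 probe. Glucosamine-6-phosphate at 40 μM to 10 mM in HEPES/KCl/Mg(OAc)2 buffer was flowed in, and tiles were imaged over ~14 h. Signals were normalised to baseline and to non-cleaving reference variants, and per-tile medians were fit to one- or two-exponential decays to give kobs. Weighted Michaelis–Menten fits across concentrations gave kcat and KM.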

The variants in data set [2] derive from B1. As to the kind of experiment: self-cleavage kobs at 160 uM GlcN6P; higher = faster cleavage; RNA array. Summed up: as §1
Data set [3] covers variants of B1. As to the kind of experiment: self-cleavage kobs at 2500 uM GlcN6P; higher = faster cleavage; RNA array. Summed up: as §1
In data set [4] the parent is B1. As to the kind of experiment: self-cleavage kobs at 10000 uM GlcN6P; higher = faster cleavage; RNA array. Summed up:
as §1

Variants of B1 are the subject of data set [5]. As to the kind of experiment: self-cleavage kobs at 640 uM GlcN6P; higher = faster cleavage; RNA array. Summed up: as §1

± gives the standard error. Variants at the floor of the assay were thinned out.

Take A15C A33U: the “self-cleavage kobs at 40 uM GlcN6P” value with glucosamine-6-phosphate [1] is < 1e-05 s⁻¹. Moreover, the “self-cleavage kobs at 160 uM GlcN6P” value with glucosamine-6-phosphate [2] was < 1e-05 s⁻¹.

Regarding U46A G51A, the “self-cleavage kobs at 40 uM GlcN6P” value with glucosamine-6-phosphate [1] was < 1e-05 s⁻¹. Moreover, the “self-cleavage kobs at 160 uM GlcN6P” value with glucosamine-6-phosphate [2] was < 1e-05 s⁻¹. The “self-cleavage kobs at 2500 uM GlcN6P” value in the data set with glucosamine-6-phosphate [3] is < 1e-05 s⁻¹. In addition, the “self-cleavage kobs at 10000 uM GlcN6P” value with glucosamine-6-phosphate [4] was < 1e-05 s⁻¹.

On to C8A C11U A15U C50G U56A G63A, for which, in the data set with glucosamine-6-phosphate [1], the “self-cleavage kobs at 40 uM GlcN6P” value worked out at 5.94e-05 ± 2e-05 s⁻¹. Also, the “self-cleavage kobs at 2500 uM GlcN6P” value with glucosamine-6-phosphate [3] came out at 0.000104 ± 5.1e-05 s⁻¹. Besides, in the data set with glucosamine-6-phosphate [4], the “self-cleavage kobs at 10000 uM GlcN6P” value stood at 0.00011 ± 2.4e-05 s⁻¹.

For G9U G43U, the “self-cleavage kobs at 40 uM GlcN6P” value with glucosamine-6-phosphate [1] is < 1e-05 s⁻¹. For the same variant, the “self-cleavage kobs at 640 uM GlcN6P” value in the data set with glucosamine-6-phosphate [5] was < 1e-05 s⁻¹. The “self-cleavage kobs at 2500 uM GlcN6P” value with glucosamine-6-phosphate [3] is < 1e-05 s⁻¹. Further, the “self-cleavage kobs at 10000 uM GlcN6P” value with glucosamine-6-phosphate [4] was < 1e-05 s⁻¹.

C34G U65C: in the data set with glucosamine-6-phosphate [1], the “self-cleavage kobs at 40 uM GlcN6P” value was < 1e-05 s⁻¹. In addition, the “self-cleavage kobs at 640 uM GlcN6P” value with glucosamine-6-phosphate [5] is < 1e-05 s⁻¹. In addition, the “self-cleavage kobs at 10000 uM GlcN6P” value with glucosamine-6-phosphate [4] was < 1e-05 s⁻¹.

For C8G U65C, in the data set with glucosamine-6-phosphate [1], the “self-cleavage kobs at 40 uM GlcN6P” value was < 1e-05 s⁻¹. Besides, in the data set with glucosamine-6-phosphate [2], the “self-cleavage kobs at 160 uM GlcN6P” value is < 1e-05 s⁻¹. The “self-cleavage kobs at 640 uM GlcN6P” value in the data set with glucosamine-6-phosphate [5] was < 1e-05 s⁻¹. For the same variant, the “self-cleavage kobs at 2500 uM GlcN6P” value with glucosamine-6-phosphate [3] was < 1e-05 s⁻¹.

As for C8G G37U G41C U56A, the “self-cleavage kobs at 40 uM GlcN6P” value with glucosamine-6-phosphate [1] was < 1e-05 s⁻¹. Further, the “self-cleavage kobs at 2500 uM GlcN6P” value in the data set with glucosamine-6-phosphate [3] was < 1e-05 s⁻¹.

For the variant A33C A52U, in the data set with glucosamine-6-phosphate [1], the “self-cleavage kobs at 40 uM GlcN6P” value is < 1e-05 s⁻¹. The “self-cleavage kobs at 640 uM GlcN6P” value with glucosamine-6-phosphate [5] was < 1e-05 s⁻¹. For the same variant, the “self-cleavage kobs at 10000 uM GlcN6P” value in the data set with glucosamine-6-phosphate [4] was < 1e-05 s⁻¹.

On to A15U U55G C61U, for which the “self-cleavage kobs at 40 uM GlcN6P” value in the data set with glucosamine-6-phosphate [1] was < 1e-05 s⁻¹. The “self-cleavage kobs at 10000 uM GlcN6P” value with glucosamine-6-phosphate [4] was < 1e-05 s⁻¹.

In the case of C10A G43U, the “self-cleavage kobs at 40 uM GlcN6P” value with glucosamine-6-phosphate [1] is < 1e-05 s⁻¹. Further, in the data set with glucosamine-6-phosphate [2], the “self-cleavage kobs at 160 uM GlcN6P” value is < 1e-05 s⁻¹. For the same variant, the “self-cleavage kobs at 10000 uM GlcN6P” value with glucosamine-6-phosphate [4] was < 1e-05 s⁻¹.

For the variant U55A C67A, in the data set with glucosamine-6-phosphate [1], the “self-cleavage kobs at 40 uM GlcN6P” value was 0.000444 ± 0.00015 s⁻¹. For the same variant, the “self-cleavage kobs at 640 uM GlcN6P” value with glucosamine-6-phosphate [5] is 0.00115 ± 0.00052 s⁻¹. In addition, in the data set with glucosamine-6-phosphate [4], the “self-cleavage kobs at 10000 uM GlcN6P” value was found to be 0.00563 ± 0.0018 s⁻¹.

For C71U, in the data set with glucosamine-6-phosphate [1], the “self-cleavage kobs at 40 uM GlcN6P” value was found to be 0.00128 ± 3.7e-05 s⁻¹. In the data set with glucosamine-6-phosphate [2], the “self-cleavage kobs at 160 uM GlcN6P” value came out at 0.00366 ± 0.00023 s⁻¹. The “self-cleavage kobs at 640 uM GlcN6P” value with glucosamine-6-phosphate [5] is 0.00716 ± 0.00034 s⁻¹. For the same variant, the “self-cleavage kobs at 2500 uM GlcN6P” value in the data set with glucosamine-6-phosphate [3] is 0.0256 ± 0.0014 s⁻¹. The “self-cleavage kobs at 10000 uM GlcN6P” value with glucosamine-6-phosphate [4] amounted to 0.0553 ± 0.0027 s⁻¹.

In the case of A33G U45C, the “self-cleavage kobs at 40 uM GlcN6P” value in the data set with glucosamine-6-phosphate [1] is < 1e-05 s⁻¹. Moreover, the “self-cleavage kobs at 640 uM GlcN6P” value in the data set with glucosamine-6-phosphate [5] was < 1e-05 s⁻¹. Moreover, the “self-cleavage kobs at 2500 uM GlcN6P” value with glucosamine-6-phosphate [3] was < 1e-05 s⁻¹.

For A33C G41A A42C G63C C67U, in the data set with glucosamine-6-phosphate [1], the “self-cleavage kobs at 40 uM GlcN6P” value is < 1e-05 s⁻¹. Also, in the data set with glucosamine-6-phosphate [3], the “self-cleavage kobs at 2500 uM GlcN6P” value was < 1e-05 s⁻¹. The “self-cleavage kobs at 10000 uM GlcN6P” value with glucosamine-6-phosphate [4] was < 1e-05 s⁻¹.

For C10G G29C G40A, in the data set with glucosamine-6-phosphate [1], the “self-cleavage kobs at 40 uM GlcN6P” value is < 1e-05 s⁻¹. In the data set with glucosamine-6-phosphate [4], the “self-cleavage kobs at 10000 uM GlcN6P” value is < 1e-05 s⁻¹.

For A14G A33C C70U, in the data set with glucosamine-6-phosphate [1], the “self-cleavage kobs at 40 uM GlcN6P” value was < 1e-05 s⁻¹. The “self-cleavage kobs at 160 uM GlcN6P” value in the data set with glucosamine-6-phosphate [2] was < 1e-05 s⁻¹. Moreover, in the data set with glucosamine-6-phosphate [5], the “self-cleavage kobs at 640 uM GlcN6P” value is < 1e-05 s⁻¹. Besides, the “self-cleavage kobs at 2500 uM GlcN6P” value in the data set with glucosamine-6-phosphate [3] is < 1e-05 s⁻¹. Further, the “self-cleavage kobs at 10000 uM GlcN6P” value with glucosamine-6-phosphate [4] was < 1e-05 s⁻¹.

Consider U31G U54G C67G C68A C70G, for which the “self-cleavage kobs at 40 uM GlcN6P” value with glucosamine-6-phosphate [1] was 4.46e-05 ± 2.2e-05 s⁻¹. Moreover, the “self-cleavage kobs at 2500 uM GlcN6P” value with glucosamine-6-phosphate [3] was 0.000243 ± 6.9e-05 s⁻¹.

Consider G7A G41A U45C U49A, for which the “self-cleavage kobs at 40 uM GlcN6P” value with glucosamine-6-phosphate [1] was < 1e-05 s⁻¹.

Turning to G13A U47C C58U C71U, the “self-cleavage kobs at 40 uM GlcN6P” value with glucosamine-6-phosphate [1] was < 1e-05 s⁻¹. The “self-cleavage kobs at 10000 uM GlcN6P” value in the data set with glucosamine-6-phosphate [4] was 6.08e-05 ± 1.3e-05 s⁻¹.

For G59C C67G C70G, the “self-cleavage kobs at 40 uM GlcN6P” value with glucosamine-6-phosphate [1] was < 1e-05 s⁻¹.

As for C10U G37U U45A, the “self-cleavage kobs at 40 uM GlcN6P” value with glucosamine-6-phosphate [1] is < 1e-05 s⁻¹.

Take G9A A42C: in the data set with glucosamine-6-phosphate [1], the “self-cleavage kobs at 40 uM GlcN6P” value was < 1e-05 s⁻¹. Besides, in the data set with glucosamine-6-phosphate [2], the “self-cleavage kobs at 160 uM GlcN6P” value was < 1e-05 s⁻¹. For the same variant, the “self-cleavage kobs at 640 uM GlcN6P” value with glucosamine-6-phosphate [5] is < 1e-05 s⁻¹. In addition, the “self-cleavage kobs at 2500 uM GlcN6P” value with glucosamine-6-phosphate [3] was < 1e-05 s⁻¹.

On to A15U C71U, for which the “self-cleavage kobs at 40 uM GlcN6P” value with glucosamine-6-phosphate [1] came to 0.000165 ± 1.3e-05 s⁻¹. In addition, in the data set with glucosamine-6-phosphate [2], the “self-cleavage kobs at 160 uM GlcN6P” value came to 0.00037 ± 4.8e-05 s⁻¹. Further, the “self-cleavage kobs at 640 uM GlcN6P” value with glucosamine-6-phosphate [5] came out at 0.00103 ± 9e-05 s⁻¹. In addition, the “self-cleavage kobs at 2500 uM GlcN6P” value in the data set with glucosamine-6-phosphate [3] was 0.00528 ± 0.00075 s⁻¹. In the data set with glucosamine-6-phosphate [4], the “self-cleavage kobs at 10000 uM GlcN6P” value came out at 0.00793 ± 0.0013 s⁻¹.
